Source: IntAct's records for PubMed 16696976

B1: Amphiphysin (Homo sapiens), P49418 (parent)
chain: MADIKTGIFAKNVQKRLNRAQEKVLQKLGKADETKDEQFEEYVQNFKRQEAEGTRLQRELRGYLAAIKGMQEASMKLTESLHEVYEPDWYGREDVKMVGEKCDVLWEDFHQKLVDGSLLTLDTYLGQFPDIKNRIAKRSRKLVDYDSARHHLEALQSSKRKDESRISKAEEEFQKAQKVFEEFNVDLQEELPSLWSRRVGFYVNTFKNVSSLEAKFHKEIAVLCHKLYEVMTKLGDQHADKAFTIQGAPSDSGPLRIAKTPSPPEEPSPLPSPTASPNHTLAPASPAPARPRSPSQTRKGPPVPPLPKVTPTKELQQENIISFFEDNFVPEISVTTPSQNEVPEVKKEETLLDLDFDPFKPEVTPAGSAGVTHSPMSQTLPWDLWTTSTDLVQPASGGSFNGFTQPQDTSLFTMQTDQSMICNLAESEQAPPTEPKAEEPLAAVTPAVGLDLGMDTRAEEPVEEAVIIPGADADAAVGTLVSAAEGAPGEEAEAEKATVPAGEGVSLEEAKIGTETTEGAESAQPEAEELEATVPQEKVIPSVVIEPASNHEEEGENEITIGAEPKETTEDAAPPGPTSETPELATEQKPIQDPQPTPSAPAMGAADQLASAREASQELPPGFLYKVETLHDFEAANSDELTLQRGDVVLVVPSDSEADQDAGWLVGVKESDWLQYRDLATYKGLFPENFTRRLD
partner: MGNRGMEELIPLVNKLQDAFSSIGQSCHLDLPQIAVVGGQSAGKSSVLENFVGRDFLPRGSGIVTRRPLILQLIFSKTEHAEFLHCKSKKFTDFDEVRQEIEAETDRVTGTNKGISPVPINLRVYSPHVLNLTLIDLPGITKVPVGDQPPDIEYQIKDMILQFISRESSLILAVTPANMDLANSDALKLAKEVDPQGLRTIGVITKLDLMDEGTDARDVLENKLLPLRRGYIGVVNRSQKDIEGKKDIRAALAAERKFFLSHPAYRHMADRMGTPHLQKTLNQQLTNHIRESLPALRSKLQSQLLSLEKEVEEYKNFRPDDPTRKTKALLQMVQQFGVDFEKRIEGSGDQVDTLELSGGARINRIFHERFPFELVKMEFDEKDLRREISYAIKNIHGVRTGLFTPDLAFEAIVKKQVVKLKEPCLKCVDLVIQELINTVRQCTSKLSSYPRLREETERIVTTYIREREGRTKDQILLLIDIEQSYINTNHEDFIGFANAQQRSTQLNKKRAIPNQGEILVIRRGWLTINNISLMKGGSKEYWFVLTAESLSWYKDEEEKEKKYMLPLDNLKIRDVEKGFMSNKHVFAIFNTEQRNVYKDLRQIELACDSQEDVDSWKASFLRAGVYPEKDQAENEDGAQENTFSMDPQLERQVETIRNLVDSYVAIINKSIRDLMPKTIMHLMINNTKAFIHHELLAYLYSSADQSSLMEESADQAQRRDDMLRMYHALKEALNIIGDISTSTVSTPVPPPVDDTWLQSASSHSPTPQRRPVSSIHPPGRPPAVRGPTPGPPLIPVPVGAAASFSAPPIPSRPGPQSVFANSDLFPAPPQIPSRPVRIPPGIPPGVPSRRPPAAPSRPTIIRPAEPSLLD

Variants of: B1
Details: with dyn2_human DNM2, P50570

Variant	effect of a mutation on the interaction
G684R	disrupting interaction
P687L	disrupting interaction
